According to US20200017877:

Legend:
Assay in all cases: cell_activity
btGDF83.6 right TALEN = conditions: pair, listed as btGDF83.6N
ssTp53 right TALEN = conditions: pair
ssGDF83.6 right TALEN = conditions: pair, 3/90
[1] = tested on: Kiss1.1a (tilapia) left TALEN; conditions: pair, tilapia Kiss20; range 48-91; Kiss1.1a locus
[2] = tested on: Kiss1.1a (tilapia) right TALEN; conditions: pair, tilapia Kiss20; range 48-91; Kiss1.1a locus
ssAPC14.2 right TALEN = conditions: pair
caFecB6.1 left TALEN = conditions: pair
ssRAG2.1 left TALEN = conditions: pair
ssGDF83.6 left TALEN = conditions: pair, 3/90
ssEIF4GI14.1 right TALEN = conditions: pair
btRosa1.2 right TALEN = conditions: pair
ssLDLR2.1 right TALEN = conditions: pair LDLRE2.1, pig male fibroblasts
ssSRY3.2 left TALEN = conditions: pair
caFecB6.1 right TALEN = conditions: pair
ssDAZL3.1 right TALEN = conditions: pair
ssSRY3.2 right TALEN = conditions: pair
ssRAG2.1 right TALEN = conditions: pair
btACAN12 right TALEN = conditions: pair, cattle fibroblasts
btACAN12 left TALEN = conditions: pair, cattle fibroblasts
ssEIF4GI14.1 left TALEN = conditions: pair
ssLDLR2.1 left TALEN = conditions: pair LDLRE2.1, pig male fibroblasts
ssP65.8 left TALEN = conditions: pair
btRosa1.2 left TALEN = conditions: pair
btGDF83.1 right TALEN = conditions: pair, cattle fibroblasts
ssP65.8 right TALEN = conditions: pair
caCLPG1.1 left TALEN = conditions: pair caCLPG1.1
ssDMDE7.1 right TALEN = conditions: pair, pig fibroblasts
ssDMDE7.1 left TALEN = conditions: pair, pig fibroblasts
ssKissR3.2 left TALEN = conditions: pair
btGDF83.6-G left TALEN = conditions: pair, listed as btGDF83.6N
caCLPG1.1 right TALEN = conditions: pair; 0/14 colonies confirmed (Table 6)
ssAPC14.2 left TALEN = conditions: pair
ssDAZL3.1 left TALEN = conditions: pair
ssTp53 left TALEN = conditions: pair
btGDF83.1 left TALEN = conditions: pair, cattle fibroblasts
ssDMDE6 right TALEN = conditions: pair, pig fibroblasts
ssDMDE6 left TALEN = conditions: pair, pig fibroblasts
ssKissR3.2 right TALEN = conditions: pair

Sequence: AAAAGTATCCTCAT (double strand) [GDF83.6 right half-site (sense strand)]
- activity (btGDF83.6 right TALEN): 18 % HDR day 3

Sequence: AAGTCAGAGTACATG (double strand) [Tp53 right half-site (sense strand)]
- activity (ssTp53 right TALEN): 22 % HDR day 3

Sequence: ACAAAAATACCCTCAC (double strand) [ssGDF83.6 right half-site (sense strand)]
- activity (% HDR+ colonies) (ssGDF83.6 right TALEN): 3

Sequence: ACAACCCTCTCAGCCTT (double strand) [Kiss1.1a left half-site]
- activity (% mosaic somatic mutation) [1]: 91

Sequence: ACAATGGCTACATTTAC (double strand) [Kiss1.1a right half-site (sense strand)]
- activity (% mosaic somatic mutation) [2]: 91

Sequence: ACAGAAATTCTGGGTC (double strand) [APC14.2 right half-site (sense strand)]
- activity (ssAPC14.2 right TALEN): 48 % HDR day 3

Sequence: ACAGAGGAGGCCAGCTGGTT (double strand) [FecB6.1 left half-site]
- activity (caFecB6.1 left TALEN): 17 % HDR day 3

Sequence: ACCTTCCTCCTCTCCGCT (double strand) [RAG2.1 left half-site]
- activity (ssRAG2.1 left TALEN): 47 % HDR day 3

Sequence: ACTGCTCTGGAGAGT (double strand) [ssGDF83.6 left half-site]
- activity (% HDR+ colonies) (ssGDF83.6 left TALEN): 3

Sequence: AGCAACCGTGGGCCCCCA (double strand) [EIF4GI14.1 right half-site (sense strand)]
- activity (ssEIF4GI14.1 right TALEN): 52 % HDR day 3

Sequence: AGGTAGGGTGGAGAGAG (double strand) [Rosa1.2 right half-site (sense strand)]
- activity (btRosa1.2 right TALEN): 45 % HDR day 3

Sequence: AGTGCAAGGACGGGTCCG (double strand) [LDLR2.1 right half-site (sense strand)]
- activity (% modified day 3) (ssLDLR2.1 right TALEN): 19

Sequence: ATACATTTTACACACATAT (double strand) [SRY3.2 left half-site]
- activity (ssSRY3.2 left TALEN): 30 % HDR day 3

Sequence: ATATCAGACGGTGTTGATG (double strand) [FecB6.1 right half-site (sense strand)]
- activity (caFecB6.1 right TALEN): 17 % HDR day 3

Sequence: ATATGGTTCAGTAAAAG (double strand) [DAZL3.1 right half-site (sense strand)]
- activity (ssDAZL3.1 right TALEN): 25 % HDR day 3

Sequence: ATTAATGGCCTGAACCT (double strand) [SRY3.2 right half-site (sense strand)]
- activity (ssSRY3.2 right TALEN): 30 % HDR day 3

Sequence: ATTCAAAAGCAGCTTAG (double strand) [RAG2.1 right half-site (sense strand)]
- activity (ssRAG2.1 right TALEN): 47 % HDR day 3

Sequence: CCCTCTTCCTTTCCTCCAGGGATCCCTCCTACATGGCCTCCCACTGGAGAAGCAACAGAGGAGCACACAGA (double strand) [ACAN12 target]
- activity (% modified day 3) (btACAN12 right TALEN): 29
- activity (% modified day 3) (btACAN12 left TALEN): 29

Sequence: CCGTCCTTTGCCAACCTT (double strand) [EIF4GI14.1 left half-site]
- activity (ssEIF4GI14.1 left TALEN): 52 % HDR day 3

Sequence: CTCCTACAAGTGGATTT (double strand) [LDLR2.1 left half-site]
- activity (% modified day 3) (ssLDLR2.1 left TALEN): 19

Sequence: CTCCTCCATTGCGGA (double strand) [P65.8 left half-site]
- activity (ssP65.8 left TALEN): 18 % HDR day 3

Sequence: CTCGCATTGCCCACT (double strand) [Rosa1.2 left half-site]
- activity (btRosa1.2 left TALEN): 45 % HDR day 3

Sequence: CTCTAACTGTGGATTTTGA (double strand) [GDF83.1 right half-site (sense strand)]
- activity (% modified day 3) (btGDF83.1 right TALEN): 17

Sequence: CTTCTGAGTCAGATC (double strand) [P65.8 right half-site (sense strand)]
- activity (ssP65.8 right TALEN): 18 % HDR day 3

Sequence: GAGAGCGCAGGAATCCAGG (double strand) [CLPG1.1 left half-site]
- activity (caCLPG1.1 left TALEN): 4 % HDR day 3

Sequence: GCCACACAACGACTGGAACATGCATTCAACATCGCCAAGTATCAGTTAGGCATAGAGAAACTACTGGATCCTGAAGGTT (double strand) [DMD exon 7 target]
- activity (% modified day 3) (ssDMDE7.1 right TALEN): 27
- activity (% modified day 3) (ssDMDE7.1 left TALEN): 27

Sequence: GCTCTACTCTACCCC (double strand) [KissR3.2 left half-site]
- activity (ssKissR3.2 left TALEN): 53 % HDR day 3

Sequence: GCTCTGGAGAATGT (double strand) [GDF83.6-G left half-site]
- activity (btGDF83.6-G left TALEN): 18 % HDR day 3

Sequence: GCTGGGACCACCTGTCAG (double strand) [CLPG1.1 right half-site (sense strand)]
- activity (caCLPG1.1 right TALEN): 4 % HDR day 3

Sequence: GGAAGAAGTATCAGCCAT (double strand) [APC14.2 left half-site]
- activity (ssAPC14.2 left TALEN): 48 % HDR day 3

Sequence: GGATGAAACCGAAATT (double strand) [DAZL3.1 left half-site]
- activity (ssDAZL3.1 left TALEN): 25 % HDR day 3

Sequence: GGCACCCGTGTCCGCGC (double strand) [Tp53 left half-site]
- activity (ssTp53 left TALEN): 22 % HDR day 3

Sequence: GTGATGAACACTCCACAGAATCT (double strand) [GDF83.1 left half-site]
- activity (% modified day 3) (btGDF83.1 left TALEN): 17

Sequence: TCTATACCTAGGTCAAAAATGTAATGAAGAAAGTATCAGTTAGGCATAGAGAAACTACTGGA (double strand) [DMD exon 6 target]
- activity (% modified day 3) (ssDMDE6 right TALEN): 25
- activity (% modified day 3) (ssDMDE6 left TALEN): 25

Sequence: TGGGCGACTTCATGTGC (double strand) [KissR3.2 right half-site (sense strand)]
- activity (ssKissR3.2 right TALEN): 53 % HDR day 3
